In the NTF2 design screens of Basanta et al. (2020) one finds protease stability score data, which are given here for 47 sequences.

This data set in a line: protease stability score; higher = more stable; yeast display proteolysis, trypsin and chymotrypsin.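 Note: relative to predicted unfolded state with 0 unfolded-like and 1 meaning tenfold more protease.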
As for “DEDHELSREFLEELLKSWITGDEDVMREFADPNVRQHVDGKDLHGMEEWTRFVYHMRFHDVRIEHHRLFDGQVEIKFREDVTYNGRRVHIESRVRIVKVNGVWRLKELYVH”, the protease stability score was 0.858.
The figure for “DEDHELVEKFLRQMIFAQITGDWRFMMHLADPHVRYEVGDKHYHGREDMERVFREWRVNSIRIEHIRIIGDKAETHQDEDGHIDGRRIELHVRLILLKVDGRWIVHNSHII” is 1.37; for “DEDHELVHRAIRDLFRALDTGDEDALEEMMDPHTRLHVGDKIYHGRDNVLRFWRRLGVDHVKVHLHDVRIQGEKIDQNTELRIQIGDKRITTETRIIMFKFDGRWRRESVHIE” it is 1.01; for “DEDHEQAKRVFDELVDNTRTGDFDNLRKLMDPHARLVINGRNFIGREEVIRVMHEIRIETHRIRSIRIINGQARIDVESEVDINGRTEETRVEIIVFKVDGRWYLHTLRIV” it is 1.99.
To “DEDHEQSHEMLELFVHSWKTGDWEILIKLLDPHARSIVNGREVHGREEISRYFKEELKKIPNMRIEVKIRSVEIQGDKVDNDVEIIIKYGDKLIRRKVHLLDLKVDGRWFLTDVTIE” belongs 1.96.
Consider “DEDHERSEIASKITYKIIETGNEDLFSHFADPNTRLHVNGVDSVGMEDVIKVHRKLWKDLGVDHFILHDQKVDVVDGVAEVRLDTRLRFNGREFETEVRFLVLKFNGRWWIRMIEFRVI”, for which the protease stability score is 0.968.
To “DEDHERTKLFSKLFLKWTHTGDWEKILENADPNVRMHIGDKNFHGMHEVWRFLHEHLEKLGADVHSLTDLKIEAYNGVVVVHVEGTENINGRDITSRLHLIVIKVDGRWIIREIRVTIS” belongs 1.29; to “DEDHESWERAYNIYLHALRTGDEERNHELADPRVLTHIDGVELHGREMMTRVMTELRIHEHRIHRVHIIGEKIDIDIEVRFRWNGKLVDTRTHEHRLKVDGKWLLTRFEVR”, 0.76; to “DEDHEVFKRINDLFHESLETGDERVLERLMDPNTRIEYGDKRVHGREELLRHMREMGIDHFNVEDTTVINGVAMLDVSIVVNGKVFKLEFYVNKVNGQWHLEHVEIREI”, 0.661.
To “DEDHHEAEEWADLITHFLKTGDEKFLRDLADPNTRFKYGDFHIHGREQLTNFLRHYVERVKGIRSELKDKHVDVQGEKVRVELDLVLRIGDKTIHITIIIINLKVDGKWYVHTLVVEHR” belongs 1.18.
As for “DEDHHESHRALTELFKDLLTGDWKSSKELADPHARVDINGKEYHGREEMERFFKELWERLGIDHIDVKHIEIQGNKVISHLEIHVNGRTFNLIIIIDKVNGRWIIHSMKMDTE”, the protease stability score was found to be 0.968.
To “DEDHHLVQLASEIVSKLIHTGDEEMIYHLADPHTRNDVNGKVFHGRDEMLKYLHDRWRHFGVERINHIVHHIRVVDGRADIDGRLHVGDKDFTVHIHMEKVNGRWVIKEIRIK” belongs 0.68.
To “DEDHKEVKHILRMWMENLYTGDEELNNRLLDPNARWEVNGRDIHGRELILKVLSNEYTEWRMKHIKIDHVENVNGQVHVDITIKYDINGQEINLRTHIRIYIINGKIHEIHISIH” belongs 0.576; to “DEDHKFAVEILRRLMEIWFTGNEEELKHLADPDYRLRVRINGKEITRHGMEQSREQIKRWIDRIDHYEIRIRHLEWQGDKSHSHTELHMRFDGVIKKFETRIIVIVIDGKVSEIIIEIN”, 1.61.
Consider “DEDHKHAERFVEEFITLILTGNEELLKRLADPNVKIDFDGVEIIGREILNSHTKKQINRIDHIRIHIRHIHVQGDKAIIDLEVRIIVDGKEDRNETHLFLTKVNGRWILTSWKVG”, for which the protease stability score worked out at 1.6.
To “DEDHKHSEEAIKRWIDTMVTGDERLFNHLADPHTKIEFNGVDNHGMEEAVRVMIFIFRLLGVDHIRIEFRERHVFNGKVVWHFHLERRIGDKTEHINTHILMEKVDGRWLIQSERYE” belongs 1.56; to “DEDHKHWKKLTEILFHVFRTGDWHLLEKLADPNVRTVVNGVEIHGREHLADIMWLHKETLGIDHMELRSIEYQGEKFIIHAEIDVNGRKVDVHIRSVIIDGRMHSISIEVHHH”, 1.99.
The figure for “DEDHKIIEKLFRHWLELLLTGDEEEIEKQMDPHARIIINGRHTHGRDDIRRLLEEIRIRHLDIERLEIRIYGNKAVALSETRVEVRIGDKEFHVDYRIILIIEKVDGRWVKRSLELIVV” is 1.71.
To “DEDHKIVEHMVKLIIDSMHTGDEHSIRELFDPNTRMDVNGVDFHGWEHYHKRIEDLRKRADHVTIYIRDMKVINGQAHIHTEMRIDIGDKHLRHRVIIIVLKVDGRWVIEQVIFL” belongs 2.29; to “DEDHKLAEHFIRLLSEKIETGDEDSYKEMVDPNVRIEIGDKEYHGRDEATRVMKEIRERVKNMRIEIHEIHIQGDKVHVRRIDKVGDKEIEKHLIVLKFDGRWVIERERVH”, 1.19; to “DEDHKLLEKFYRIWVEMFKTGDEERWKHLADPDARSDINGVDFIGRDTVSKIMESFLRKMGFDHMEIRRFDFQGEKIKSDVVLDFNGRDVRTEIHIIVVDGRIKEERFRVT”, 0.192.
“DEDHKQSKHAFELFMHLLRTGDEEVLRRMADPNARIVVNGKDDIGREVFLRVLLEFGVDHMQIRDWELDENHIILVSELRIGEKTHTLDVHFKKINGRWIVEVNNLE” showed a protease stability score of 1.25.
The figure for “DEDHKRVREMTDILIELLVTGNEDLLLKLMDPHARERIGDWHSHGRESFVKLLQDLLERIKNVRIEIKDMRIRIYNGVAHSHIDGNNIYNGREIKALWILIIEKINGRWIVHSIELETE” is 1.45.
The figure for “DEDHKSAEDMLRLLLETVITGDETLLEKLADPHVRLRVGDKKFIGMEELLRLLDEEKKRLGYTRVDLVLHHREVQGDKLHLETELRVNGRTYQTHWIALKINGRWIIHEVSIR” is 2.25.
The figure for “DEDHKWAKFMFEVFKKVVETGDEEVFKHLADPNVRMEVGDKEFIGREEFRRFLNELRIHHQRDTHIEIRSVGDKIEVLIDGETTIEVGDKTRDHRMRVILFTMKVDGRWLIRSIRFEIH” is 1.56.
“DEDHQASRLVFELLDRAWKTGDEQILNEMMDPHVKVVFNGVELHGRSALERLMKELRIDTLHLDHTEIYDGRMETEGKVDGEYNGRTLHHITKIRFEKIDGRWVEREVVIK”: the protease stability score came to 0.815.
The figure for “DEDHQMATIAFHLLIESLLTGDEHTIQEMFDPRVKVNINGVELIGWEALVEHLRRIDHHSIHQWTFRDVRFYDGVLNVLGEVDFEVVFDGRRVSHRVRFHLIIFKIDGKWMTRTVEVK” is 2.23; for “DEDHRDAIFILRLFLHATETGDEDSLETLMDPHVKLEINGVRIHGRETTYILMRHWRFRIEHLEIRNFDVFNGRLELIGHRHTTINIDGREERHTVRLEVHIWKINGQWLVQHIHIH” it is 2.91; for “DEDHRDAQRLVEHWINVFETGDEEQIEKLLDPNARVIVDGRHVHGRSSVLKFIVDLVREMRVELRLKDLSVVDGRVHVKMEMRIEINGRREETEVDINAEKVDGVWRFKEMFVI” it is 2.47.
In the case of “DEDHRDMEEFMRIFIDSLKTGDEESLARMLDPNARTKVNGVDFHGRESALEVLRRLWEEFGVDHMELKSREVEVQGNKVHIHLVVTLIQGDKHIHVRYHINTIKVDGRWLLHEINVEIR”, the protease stability score worked out at 1.36.
With “DEDHRDVERLFQFVEELLHTGDERVNEELADPNVRIDVNGVERHGREDMVTWLRTIEERYKNATFHTHHIRIQGNKLKVNGRIRQGDWSSDVDILYVKINGRWFIRELKVK”, the protease stability score worked out at 1.49.
To “DEDHRHARNIFQKWTHDLATGNFHSLNTLFDPHARFEVGDKDIIGRHEWQEHLRHLRLHEVKFTWRRFRIFDGRVEMRGDLRVDGTIDGQHDDETIHTHMIILKVNGRWHIDSMHVH” belongs 1.08.
The figure for “DEDHRIAHEIFRLLFHLLSTGDEDIFNQMADPHVQSIVGDKEFHGREQLRKAWHEIRVHRSDIHSVEIRVINGRVRNDMRIRYDGEINGKKIDTDIHMEVVIDKYNGRWIIRSVSIEII” is 2.16; for “DEDHRLAVHISKMFEHAESTGDFEISERMADPHTKIDIGDKHYHGMEEWVRFLRELRLSTDHIEIKDSKRYNGRLIIHSRTRITLNVNGKTIDFEIDVTFIFEKVNGRWKLHMYRFD” it is 0.944.
The figure for “DEDHRLWEEMIRILHDALRTGDEDMLEHLMDPDTRLHVGDKNVHGRRDMKYFWEILGVDRVELVIRSFRLIDGKAEIDGESRFNGVTRRVRLIHNKINGRWLTESIHIH” is 0.745; for “DEDHRWLKELMELFSRALSTGNEKELTELMDPNTRIEVDGVDLIGREDWRHFLERVDHLEAKRVEIKRVKVYDGKIEMDTTEDGVIEINGQNVRTIVHSQVFVLKVDGRWIFRKMSRR” it is 1.42; for “DEDKDKVRRWAEDFIRDLTTGDFDSLRREADPNYRIEVNGQDHHGMEFHLWVLDHLGLDNIHTELRDSEVQGDKAHNDIRITYNGKEMTVILIVDKVNGKWFVRKIRIE” it is 1.72.
Consider “DEDKDLIDLHFEIYQQVVLTGDFRKFRRLFDPNTRWEIGDKEFHGREHLSKLHKDLLEHLGVRVREVELHNFHIQGDKIHLDTRIHVHAENHHMIHITEIISTKIDGRWIITELRLR”, for which the protease stability score came out at 0.826.
To “DEDKDLMHEVTRLLHRNLNTGDEHSLERLFDPHYRYHQGEFHSVGREEWYEWLRRYGVDHVHVNLTESISVGDKMKLEGKLELRYDGRRFEHDLHLIALKIDGRWIFTSSHVR” belongs 0.221; to “DEDKDMKDTMLKDLLHTLETGDEDIWAKLIDPNTQVDIGDKRIHGREKIVEHFRRADVLTIHHVRLRQFHHFDGRAHMNVQFDGTVQINGVEVRFDVTVKLVFLKVNGRWFLHSEERE”, 1.15; to “DEDKDVTKRLFELLRQADETGDEHTMTRLLDPHAQLVVNGRRVHGMEFVWELLLRLRHRYDHSHWRLHDARTQGEYMHLDVRLHLNIDGKRVNIEMHLIILKIDGVWFVHSVEIH”, 0.45.
The figure for “DEDKEAARHFSKILIHLMLTGDEEMIERLLDPDVKVHLVINGVHIERHGREEMIKMHRELLEQIRWKDFILRDIKVVNGVAHVDGELRREQGDKHETVRVRIDIVVINGRIRQVHIEFR” is 0.404; for “DEDKEAKEESWRIYLHSLLTGDEKEIERLVDPNARLDINGQEHHGRHMVLTHVLRLMVRADHLDDIEIHHMEVIDGQLHSDVILKITINGRDVHIREHYLLRKVNGRWYFKSIEVR” it is 1.7; for “DEDKEALHEILRLIAEAWNTGDEHTLRRLFDPDVRVEVGDKEFHGREEVDRWFRHLRIEHVETRLHDTRSQGDKLLSDTRLHFVGEVNGVHFNRSTETDLFVHKVDGRWRIESIRVR” it is 1.03.
The figure for “DEDKEDLDDWFKRWEEALRTGDEKTLLRLMDPDTRLIFENHERHGMEEIFDMLHKHLNRVDHIHDFILRRDDSQGDKVRYDGQEDGIVDGVRDILKVIIYMIKIDGRWLMEELEFH” is 1.26.
In the case of “DEDKEDTDKMIEILIRVARTGDEDSLLHMLDPNVRIVVNGREEHGRDVAHRFLKEIRIHDMEVKRVEIIGNKVKIDGRVDGDFNGVRHKTETEIITEKINGKWVIRSIIFR”, the protease stability score turned out to be 2.1.
The figure for “DEDKEEAMKFLRLWFHSVLTGDEDELTRLLDPNTRIVIDGRTFVGREEMVFVMREMRVHHFHIKDVHLVNGVAHIDTHSDIEFNGRRYRTDTEISVLKVDGKWILKSVKIR” is 2.42.
